Test results taken from PMC2542413.

Tests used:
[1] = target: YU2 gp140-F trimers (HIV-1 (primary isolate YU2) | not stated); assay: SEC; gel filtration on a Superdex 200 26/60 prep grade column; trimers separated from lower molecular weight forms
[2] = target: soluble human 4-domain CD4 (human); assay: ELISA; CD4 solution competition assay: Env trimers co-incubated with 2, 4 or 9 nM sCD4 in PBS at room temperature for 1 h; non-Env-bound sCD4 captured on plate-bound anti-CD4 RPA-T4 and detected with biotin-OKT-4

YU2 gp140-F trimers gave a stoichiometry N [1] of 3, a half-maximal binding (with 2 nM sCD4) [2] of 7 nM and a half-maximal binding (with 4 nM sCD4) [2] of 13 nM. The half-maximal binding (with 9 nM sCD4) [2] was 26 nM.
